{"source": "paper PMC6524963", "origin": "cited, not measured here", "key": {"Ran (Homo sapiens) [1]": {"target": "Ran (Homo sapiens) (UniProt P62826)"}, "Ran (Homo sapiens) [2]": {"target": "Ran (Homo sapiens) (UniProt P62826)", "remark": "listed apart in the source"}}, "note": "Read-outs that look alike come from different tables or passages of the source."}
{"substance": "RanBP1/RanBP2 RBD RBD (from UniProt P43487)", "values": [{"measurement": "Kd", "setting": "Ran (Homo sapiens) [1]", "result": 0.001, "unit": "µM"}, {"measurement": "Kd", "setting": "Ran (Homo sapiens) [2]", "result": 10, "unit": "µM"}]}
